The record followed here is paper PMC9334217.

In series [1] the test system is CCn1c(=NN=c2sc3cc(S(=O)(=O)O)ccc3n2CC)sc2cc(S(=O)(=O)O)ccc21. Nature of the series: purified protein. Conditions: 1.5 mM H2O2, 100 mM sodium acetate, pH 4.3, 25 °C, variant 29E4.
The target in series [2] is PpDyP variant 6E10 (E188K/A142V/H125Y) (Pseudomonas putida MET94). Nature of the series: crystal structure.

As usually defined, the Km is the substrate concentration at which the rate is half of its maximum. With “PpDyP (Pseudomonas putida KT2440; E188K/H125Y)”, the Km in series [1] worked out at 810 ± 190 µM.
The stoichiometry N is the number of molecules, sites or subunits per partner or assembly. The substance “PpDyP variant 6E10 (E188K/A142V/H125Y) (enzyme)” displayed a stoichiometry N in series [2] of 4.
